# Data: US11512128B2, “VEGF/DLL4 binding agents and uses thereof” (MEREO BIOPHARMA 5, INC., priority 2011, dated 2022)
# T1: mouse VEGF165 (Mus musculus, UniProt Q00731)
# T1 sequence (Q00731 27-190 isoform Q00731-2): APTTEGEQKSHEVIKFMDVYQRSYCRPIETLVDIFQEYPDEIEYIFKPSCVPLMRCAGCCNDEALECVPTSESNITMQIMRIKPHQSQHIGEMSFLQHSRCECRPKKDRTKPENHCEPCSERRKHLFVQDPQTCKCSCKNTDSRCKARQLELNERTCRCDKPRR
# T2: human VEGF165 (Homo sapiens, UniProt P15692)
# T2 sequence (P15692 27-191 isoform P15692-4): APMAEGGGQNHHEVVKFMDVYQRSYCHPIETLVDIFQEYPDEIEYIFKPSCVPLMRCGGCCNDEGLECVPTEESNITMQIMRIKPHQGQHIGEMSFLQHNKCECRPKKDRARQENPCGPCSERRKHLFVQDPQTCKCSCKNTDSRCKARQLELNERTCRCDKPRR
# B1: 219R45: monoclonal antibody that specifically binds human VEGF; parental anti-VEGF antibody (antibody)
# heavy: QVQLVQSGAEVKKPGASVKVSCKASGYTFTNYWMHWVRQAPGQGLEWMGDINPSNGRTSYKEKFKRRVTLSVDKSSSTAYMELSSLRSEDTAVYFCTIHYDDKYYPLMDYWGQGTLVTVSSASTKGPSVFPLAPCSRSTSESTAALGCLVKDYFPEPVTVSWNSGALTSGVHTFPAVLQSSGLYSLSSVVTVPSSNFGTQTYTCNVDHKPSNTKVDKTVERKCCVECPPCPAPPVAGPSVFLFPPKPKDTLMISRTPEVTCVVVDVSHEDPEVQFNWYVDGVEVHNAKTKPREEQFNSTFRVVSVLTVVHQDWLNGKEYKCKVSNKGLPAPIEKTISKTKGQPREPQVYTLPPSREEMTKNQVSLTCLVKGFYPSDIAVEWESNGQPENNYKTTPPMLDSDGSFFLYSKLTVDKSRWQQGNVFSCSVMHEALHNHYTQKSLSLSPGK
# light: DIVMTQSPDSLAVSLGERATISCRASESVDNYGISFMKWFQQKPGQPPKLLIYAASNQGSGVPDRFSGSGSGTDFTLTISSLQAEDVAVYYCQQSKEVPWTFGGGTKVEIKRTVAAPSVIFPPSDEQLKSGTASVVCLLNNFYPREAKVQWKVDNALQSGNSQESVTEQDSKDSTYSLSSTLTLSKADYEKHKVYACEVTHQGLSSPVTKSFNRGEC
# B2: 21R79: monoclonal antibody that specifically binds human DLL4; parental anti-DLL4 antibody (antibody)
# heavy: QVQLVQSGAEVKKPGASVKISCKASGYSFTAYYIHWVKQAPGQGLEWIGYIANYNRATNYNQKFKGRVTFTTDTSTSTAYMELRSLRSDDTAVYYCARDYDYDVGMDYWGQGTLVTVSSASTKGPSVFPLAPCSRSTSESTAALGCLVKDYFPEPVTVSWNSGALTSGVHTFPAVLQSSGLYSLSSVVTVPSSNFGTQTYTCNVDHKPSNTKVDKTVERKCCVECPPCPAPPVAGPSVFLFPPKPKDTLMISRTPEVTCVVVDVSHEDPEVQFNWYVDGVEVHNAKTKPREEQFNSTFRVVSVLTVVHQDWLNGKEYKCKVSNKGLPAPIEKTISKTKGQPREPQVYTLPPSREEMTKNQVSLTCLVKGFYPSDIAVEWESNGQPENNYKTTPPMLDSDGSFFLYSKLTVDKSRWQQGNVFSCSVMHEALHNHYTQKSLSLSPGK
# light: DIVMTQSPDSLAVSLGERATISCRASESVDNYGISFMKWFQQKPGQPPKLLIYAASNQGSGVPDRFSGSGSGTDFTLTISSLQAEDVAVYYCQQSKEVPWTFGGGTKVEIKRTVAAPSVIFPPSDEQLKSGTASVVCLLNNFYPREAKVQWKVDNALQSGNSQESVTEQDSKDSTYSLSSTLTLSKADYEKHKVYACEVTHQGLSSPVTKSFNRGEC
# Legend:
# mouse VEGF165 = biological target: T1, mouse VEGF165; test: Biacore binding affinity (KD) to mouse VEGF; settings: Biacore 2000, biotinylated mouse VEGF165 on streptavidin chip; read-out: KD mVEGF
# Experimental: (§1) The KDs of parental antibodies anti-VEGF 219R45 (IgG format), anti-DLL4 21R79 (IgG format), anti-DLL4 21M18 (IgG format) and bispecific antibodies 219R45-MB-21M18 and 219R45-MB-21R79 were determined using a Biacore 2000 system from Biacore LifeSciences (GE Healthcare). Recombinant human DLL4-Fc or mouse DLL4-Fc proteins were immobilized on CM5 carboxyl chips using standard amine-based chemistry (NHS/EDC) and blocked with ethanolamine. Recombinant human VEGF165 or mouse VEGF165 were biotinylated and immobilized on streptavidin chips. The antibodies were serially diluted 2-fold from 100 nM to 0.78 nM in HBS-P (0.01M HEPES pH7.4, 0.15M NaCl, 0.005% v/v Polysorbate 20). For each antibody, all 8 dilutions were sequentially injected over a specific chip. Kinetic data were collected over time and were fit using the simultaneous global fit equation to yield affinity constants (KD values) for each bispecific antibody.
# human DLL4-Fc = human DLL4-Fc (Homo sapiens, UniProt Q9NR61); test: Biacore binding affinity (KD) to human DLL4; settings: Biacore 2000, human DLL4-Fc on CM5 chip; read-out: KD hDLL4
# Chain of human DLL4-Fc (Q9NR61 27-522 limits assumed): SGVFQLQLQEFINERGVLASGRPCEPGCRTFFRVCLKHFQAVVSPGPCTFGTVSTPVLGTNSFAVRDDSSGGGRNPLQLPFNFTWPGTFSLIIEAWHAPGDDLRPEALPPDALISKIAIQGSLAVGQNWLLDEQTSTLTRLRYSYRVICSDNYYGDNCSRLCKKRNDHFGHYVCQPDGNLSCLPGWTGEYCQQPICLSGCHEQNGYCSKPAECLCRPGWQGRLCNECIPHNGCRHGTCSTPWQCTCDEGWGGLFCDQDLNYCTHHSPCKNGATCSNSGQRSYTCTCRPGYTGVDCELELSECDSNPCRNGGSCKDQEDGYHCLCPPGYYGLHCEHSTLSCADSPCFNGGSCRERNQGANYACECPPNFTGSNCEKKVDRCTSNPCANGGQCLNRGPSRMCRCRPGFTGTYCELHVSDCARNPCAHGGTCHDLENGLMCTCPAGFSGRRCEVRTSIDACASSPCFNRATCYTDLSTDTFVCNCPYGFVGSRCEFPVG
# Experimental: as §1
# Several additional anti-DLL4 antibodies were identified that had binding affinities intermediate to the KDs of 21M18 and 21R79. Two of these anti-DLL4 antibodies were used to produce anti-VEGF/anti-DLL4 bispecific antibodies 219R45-MB-21R75 and 219R45-MB-21R83. Using the Biacore 2000 system as described above, the KDs of the bispecific antibodies 219R45-MB-21R75 and 219R45-MB-21R83 to human DLL4 were determined.
# mouse DLL4-Fc = test: Biacore binding affinity (KD) to mouse DLL4; settings: Biacore 2000, mouse DLL4-Fc on CM5 chip; read-out: KD mDLL4
# Chain of mouse DLL4-Fc (Q9JI71 27-519 limits assumed): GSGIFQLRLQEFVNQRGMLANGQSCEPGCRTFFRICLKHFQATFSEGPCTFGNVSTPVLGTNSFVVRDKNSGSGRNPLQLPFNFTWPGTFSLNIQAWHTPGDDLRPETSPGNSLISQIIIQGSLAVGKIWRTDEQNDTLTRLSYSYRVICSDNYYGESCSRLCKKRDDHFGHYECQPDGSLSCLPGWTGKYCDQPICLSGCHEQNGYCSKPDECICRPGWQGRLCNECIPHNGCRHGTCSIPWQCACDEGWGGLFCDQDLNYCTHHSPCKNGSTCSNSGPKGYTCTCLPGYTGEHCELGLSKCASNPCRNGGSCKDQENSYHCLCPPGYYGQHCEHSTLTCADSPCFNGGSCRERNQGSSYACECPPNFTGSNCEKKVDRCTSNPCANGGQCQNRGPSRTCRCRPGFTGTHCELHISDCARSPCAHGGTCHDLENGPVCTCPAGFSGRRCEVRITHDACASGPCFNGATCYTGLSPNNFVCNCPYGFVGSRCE
# Experimental: as §1
# [1] = test system: VEGF-induced proliferation of HUVEC cells; test: HUVEC proliferation assay; format: cell-based, human; settings: hVEGF 5 ng/ml, Alamar Blue on day 7
# Experimental: FIG. 3. Inhibition of VEGF-induced HUVEC proliferation by anti-VEGF/anti-DLL4 bispecific antibodies. Fluorescence intensity is read using an excitation wavelength of 530 nm and an emission wavelength of 590. 219R45-MB-21M18 (-●-); 219R45-MB-21R79 (-▴-); 219R45 (-▪-); Medium with no VEGF (-⋄-).
# HUVEC cells were obtained from Lonza (Walkersville, Md.) and cultured in growth media (M199, 10% heat-inactivated FBS (HI-FBS), 50 μg/ml EGS, 1X heparin, 1 mM L-glutamine). For the HUVEC proliferation assay, a 96-well plate was pre-coated with 50 μl of 10 μg/ml rat tail collagen type I solution (collagen I in 0.02N acetic acid) and incubated at 4° C. overnight. After incubation, the plate was thoroughly aspirated to remove unbound collagen I solution and washed once with 200 μl DPBS. The HUVEC cells were removed from the surface of the growth flasks using an endothelial cell subclone reagent and centrifuged at 1200 rpm for 5 minutes at 4° C. The cells were resuspended in starvation/assay medium (M199 and 2% HI-FBS, 1× heparin, 5 U/ml heparin-glutamine) at a density of 10^5 cells/ml. The cells were seeded into the collagen-coated assay plate at 5000 cells/well, 50 ul/well. The cells were incubated for 3 hours at 37° C., washed one time, refed with 100 ul assay media, and incubated overnight at 37° C. The next day, bispecific antibodies 219R45-MB-21M18, 219R45-MB-21R79, parental antibody 219R45, or control antibody LZ1 were prepared in a mixture with human VEGF (R&D Biosystems, Minneapolis, Minn.). The antibodies were serially diluted 5-fold from […] to 0.25 nM in assay buffer in combination with hVEGF (final concentration 5 ng/ml). The mixture was pre-incubated at 37° C. for 2 hours. The medium was removed from the assay plate, and 100 μl of the antibody/hVEGF mixture was added to each well. […] The plate was read with a SpectraMax M5e Microplate reader (Molecular Devices, Sunnyvale CA) using a excitation wavelength of […] and an emission wavelength of 590 nm.
# human VEGF165 = biological target: T2, human VEGF165; test: Biacore binding affinity (KD) to human VEGF; settings: Biacore 2000, biotinylated human VEGF165 on streptavidin chip; read-out: KD hVEGF
# Experimental: as §1
# [2] = test system: DLL4-induced Notch signaling; test: DLL4-induced Notch signaling luciferase reporter assay in Notch2-expressing PC3 cells; format: cell-based; settings: coated human DLL4 100 ng/well, antibody 20 to 0.064 ug/ml
# Experimental: FIG. 4. Inhibition of DLL4-induced Notch signaling by anti-VEGF/anti-DLL4 bispecific antibodies. Luciferase activity was measured using a dual luciferase assay kit with firefly luciferase activity normalized to Renilla luciferase activity. 219R45-MB-21M18 (-●-); 219R45-MB-21R79 (-▪-); 21M18 (-∘-); 21R79 (-□-).
# Human PC3 cells were transfected with an expression vector encoding a full-length human Notch2 receptor and a firefly luciferase reporter vector (8× CBF-luciferase reporter) that is responsive to Notch signaling. The cells were also transfected with a Renilla luciferase reporter (Promega, Madison, Wis.) as an internal control for transfection efficiency. Purified human DLL4 protein was coated onto 96-well plates at 100 ng/well and Notch2-expressing PC3-luc cells were added to the wells. Anti-VEGF/anti-DLL4 bispecific antibodies 219R45-MB-21M18, 219R45-MB-21R79, parental anti-DLL4 antibodies 21M18, 21R79 or a control antibody LZ1 were serially diluted 5-fold from 20 ug/ml to 0.064 ug/ml, added to the appropriate wells, and incubated overnight. Luciferase activity was determined using a dual luciferase assay kit (Promega, Madison, Wis.) with firefly luciferase activity normalized to Renilla luciferase activity.
Molecule,Kd (mouse VEGF165) [nM],Kd (human DLL4-Fc) [nM],Kd (mouse DLL4-Fc) [nM],inhibition of VEGF-induced HUVEC proliferation [1],Kd (human VEGF165) [nM],inhibition of DLL4-induced Notch signaling [2]
B1,~23,> 100,> 100,inhibited HUVEC proliferation,–,–
B2,> 100,–,> 100,–,> 100,inhibited DLL4-induced Notch signaling
